Test results reported in patent publication US20170015742A1 (published 2017).
Where a chain is given by its changes, count along the chain named.

B1: CL-33578-IgG (antibody, V domains shown)
VH: EVTLRESGPALVKPTQTLTLTCTFSGFSLSTYGMGVGWIRQPPGKALEWLANIWWDDDKYYNPSLKNRLTISKDTSKNQVVLTMTNMDPVDTATYYCARIQSGWTNYEFDYWGQGTMVTVSS
VL: EIVLTQSPGTLSLSPGERATLSCERSSGDIGDSYVSWYQQKPGQAPRLVIYADDQRPSGIPDRFSGSGSGTDFTLTISRLEPEDFAVYYCQSYDINIDIVFGGGTKVEIK
B2: CL-33587-IgG (antibody, V domains shown)
VH: B1 VH with G103M, N106R, E108D
VL: B1 VL
B3: CL-33759-IgG (antibody, V domains shown)
VH: B1 VH with Q101E, G103V, N106R, E108D
VL: B1 VL with G31W, D32Q, S33T, A52G, P57A, N96D, V100T
B4: CL-33675-IgG (antibody, V domains shown)
VH: B1 VH with Q101E, G103S, W104G, T105P, N106K, E108S
VL: B1 VL with E24R, R25A, D29S, G31W, D32Y, Y34F, V49L, P57A, D94G, I99V
B5: CL-33737-IgG (antibody, V domains shown)
VH: B1 VH with Q41K, Q101E, G103S, W104G, T105P, N106K, E108S
VL: B1 VL with E24R, R25A, D29S, G31W, D32Y, Y34F, V49L, P57A, D94G, I99V
B6: CL-33845-IgG (antibody, V domains shown)
VH: B1 VH with Q101V, G103D, N106T, E108S
VL: B1 VL with E24R, R25A, D29S, G31W, D32Y, Y34F, V49L, P57A, D94G, I99V
B7: CL-33699-IgG (antibody, V domains shown)
VH: B1 VH with V36I, Q101E, G103M, W104G, T105P, N106K, E108A
VL: B1 VL with E24R, R25A, D29S, G31W, D32Y, Y34F, V49L, P57A, D94G, I99V
B8: CL-33767-IgG (antibody, V domains shown)
VH: B1 VH with Q101E, G103I, W104G, T105P, N106K, E108S
VL: B1 VL with E24R, R25A, D29S, G31W, D32Y, Y34F, V49L, P57A, D94G, I99V
B9: chBEW-1B4 (antibody, human IgG1, kappa, L234A L235A, V domains shown)
VH: QIQLVQSGPELKKPGESVKISCKASGYSFTNYGMYWVKQAPGQGLQYMGWIDTETGKPTYTDDFKGRFVFFLETSASTAYLQINNLKNEDMATYFCARWSGDTAGIRGPWFAYWGQGTLVTVSS
VL: DIRMTQSPASLSASLGETVNIECLASEDIYSDLAWYQQKPGKSPQLLIYNANDLQKGVPSRFSGSGSGTQYSLKINSLQSEDVATYFCQQYNYYPGTFGAGTKLELKR
notes: also called chBEW-1B4-C4
B10: chBED-4G10-C8 (antibody, human IgG1, kappa, L234A L235A, V domains shown)
VH: QVQLQQSGTELVKPGSSVKISCKASGYTFTSNYMHWIRQQPGNGLEWIGWIYPGDGDTNYNHNFNGKATLTADKSSSTAYMQLSSLTSEDFAVYFCASSTRAIPGWFTYWGQGTLVTVSS
VL: DTVLTQSPALAVSPGERVSISCWASESVSTLMHWYQQKLGQQPKLLIYGASNLESGVPARFRGSGSGTDFTLTIDPVEADDTATYFCQQSWSDPYTFGAGTKLELKR
B11: chBEW-3A1 (antibody, human IgG1, kappa, L234A L235A, V domains shown)
VH: QVQLEQSGAELVKPGTSVKLSCMASGYTSSSNHMNWMKQTTGQGLEWIGIINPGSGGTRYNVKFEGKATLTVDKSSSTAFMQLNSLTPEDSAVYYCARAGFPGPFSYYAMGAWGQGTSVTVSS
VL: DIQMTQSPPVLSASVGDRVTLSCKASQNIHNNLDWYQQKHGEAPKLLIFYTNNLQTGIPSRFSGSGSGTDYTLTISSLQPEDVATYYCYQYNSGYTFGAGTKLELKR
notes: also called chBEW-3A1-D10-G9
B12: chBEW-8E6 (antibody, human IgG1, kappa, L234A L235A, V domains shown)
VH: QIQLVQSGPELKKPGESVKISCKASGYTFTDYAMHWVKQAPGKVLKWMGWINTFTGKPTYIDDFKGRFVFSLEASASTANLQISDLKNEDTATYFCARGNYYSGYWYFDFWGPGTMVTMSS
VL: DIQMTQSPASLSASLGETISIECRASEDISSNLAWYQQKSGKSPQLLIFAANRLQDGVPSRFSGSGSGTQFSLKISGMQPEDEGDYFCLQGSKFYTFGAGTKLELKR
notes: also called chBEW-8E6-E4
B13: chBEW-1E3 (antibody, human IgG1, kappa, L234A L235A, V domains shown)
VH: QIQLVQSGPELKKPGESVKISCKASGYPFTNSGMYWVKQAPGQGLQYMGWINTEAGKPTYADDFKGRFVFFLETSASTAYLQINNLKNEDMATYFCARWGYISDNSYGWFDYWGQGTLVTVSS
VL: DTVLTQSPALAVSPGERVSISCRASEGVYSYMHWYQQNPGQQPKLLIYKASNLASGVPARFSGSGSGTDFTLTIDPVEADDTATYFCHQNWNDPLTFGSGTKLEIKR
notes: also called chBEW-1E3-D6
B14: chBEW-1B10 (antibody, human IgG1, kappa, L234A L235A, V domains shown)
VH: EVQLVESGGGLVQPGRSLKLSCAASGFSFSKYDMAWFRQTPTKGLEWVASITTSGVGTYYRDSVKGRFTVSRDNAKSTLYLQMDSLRSEDTATYYCARGYGAMDAWGQGTSVTVSS
VL: DIQMTQSPASLSASLEEIVTITCKASQDIDDYLSWYQQKPGKSPQLVIYAATRLADGVPSRFSGSGSGTQYSLKISRLQVDDSGIYYCLQSSSTPWTFGGGTNLELKR
notes: also called chBEW-1B10-B9-C3
B15: chBEW-10H2 (antibody, human IgG1, kappa, L234A L235A, V domains shown)
VH: QIQLVQSGPELKKPGESVKISCKASGYSFTNFGLYWVKQAPGQGLQYMGWIDTETGKPTYADDFRGRFVFFLETSASTAYLQINNLKNEDMATYFCARVYGYPSWYFDFWGPGTMVTVSS
VL: DIQMTQSPASLSTSLEEIVTITCQASQDIDNYLSWYQQKPGKSPQLLIHSATSLADGVPSRFSGSRSGTQFSLKIHRLQVEDTGIYYCLQHFFPPWTFGGGTKLELKR
notes: also called chBEW-10H2-B9
B16: chBEW-5C3 (antibody, human IgG1, kappa, L234A L235A, V domains shown)
VH: QIQLVQSGPELKKPGESVKISCKASGYTFTNYGVYWVKQAPGQGLQYMGWINTETGKPTYADDFKGRFVFFLETSTNTAYLQINNLKNEDMATFFCARARQLDWFVYWGQGTLVTVSS
VL: DTVLTQSPALTVSPGERVSISCRARESLTTSLCWFQQKPGQQPKLLIYGASKLESGVPARFSGSGSGTDFTLTIDPVEADDTATYFCQQSWYDPPTFGGGTKLELKR
notes: also called chBEW-5C3-E7

biological target: T1, Human PDGF-BB (human, UniProt P01127 82-190); assay: cell-based or functional assay

Row | Binder | hPDGF-BB NIH-3T3 Proliferation IC50 [pM]
1 | B1 | 33
2 | B2 | 46
3 | B3 | 293
4 | B4 | 40
5 | B5 | 30
6 | B6 | 171
7 | B7 | 33
8 | B8 | 90

Biological target: T2, Cynomolgus monkey PDGF-BB (cynomolgus monkey, UniProt P01127 82-190 (human entry), limits assumed)
T2 chain: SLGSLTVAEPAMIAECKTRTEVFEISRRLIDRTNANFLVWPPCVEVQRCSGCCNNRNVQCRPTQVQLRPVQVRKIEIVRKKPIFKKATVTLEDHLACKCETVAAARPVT
Assay: cell-based or functional assay

Row | Binder | cynoPDGF-BB NIH-3T3 Proliferation IC50 [pM]
9 | B1 | 23
10 | B2 | 29
11 | B3 | 180
12 | B4 | 24
13 | B5 | 24
14 | B6 | 73
15 | B7 | 16
16 | B8 | 42

biological target: T1, Human PDGF-BB; assay: Biacore SPR, antibody captured by anti-human Fc, PDGF-BB as analyte
Method: Unreacted moieties on the biosensor surface were blocked with ethanolamine. For kinetic analysis, rate equations derived from the 1:1 Langmuir binding model were fitted simultaneously to multiple antigen injections (using global fit analysis) with the use of Scrubber 2 (BioLogic Software), Biacore Biaevaluation 4.0.1 software or Biacore T100 Evaluation software. Purified antibodies or DVD-Ig molecules were diluted in running buffer for capture across goat anti-human Fc reaction surfaces. Antibodies or DVD-Ig molecules to be captured as a ligand (1 μg/ml) were injected over reaction matrices at a flow rate of 10 μl/minute. During the assay, all measurements were referenced against the capture surface alone (i.e., with no captured antibody or DVD-Ig molecule). […] The equilibrium dissociation constant KD (M) of the reaction between antibodies and the target antigen was then calculated from the kinetic rate constants by the following formula: KD=Koff/Kₒₙ. Binding was recorded as a function of time and kinetic rate constants were calculated. In this assay, on-rates as fast as 10⁶M⁻¹s⁻¹ and off-rates as slow as 10⁻⁶ s⁻¹ could be measured. […]

Row | Binder | Kd [pM] | kon [M⁻¹ s⁻¹]
17 | B1 | ≤ 0.3 | ≥ 9e+07
18 | B2 | ≤ 0.22 | ≥ 9e+07
19 | B4 | 0.61 | 3.6e+07

biological target: T3, Human VEGF-A 165 (human, UniProt P15692 207-395); assay: SPR (Biacore), antibody captured by anti-human Fc, hVEGF165 as analyte
T3 construct: Recombinant human VEGF165; also called huVEGF-A165; hVEGF165
Method: For example, approximately 9000 RU of goat anti-human Fc specific polyclonal antibody (Thermo Fisher Scientific Inc., Rockford, Ill.) diluted in 10 mM sodium acetate (pH 4.5) is directly immobilized across a CM5 research grade biosensor chip using a standard amine coupling kit according to manufacturer's instructions and procedures at 25 μg/ml. Unreacted moieties on the biosensor surface were blocked with ethanolamine. For kinetic analysis, rate equations derived from the 1:1 Langmuir binding model were fitted simultaneously to multiple antigen injections (using global fit analysis) with the use of Scrubber 2 (BioLogic Software), Biacore Biaevaluation 4.0.1 software or Biacore T100 Evaluation software. Purified antibodies or DVD-Ig molecules were diluted in running buffer for capture across goat anti-human Fc reaction surfaces. Antibodies or DVD-Ig molecules to be captured as a ligand (1 μg/ml) were injected over reaction matrices at a flow rate of 10 μl/minute. During the assay, all measurements were referenced against the capture surface alone (i.e., with no captured antibody or DVD-Ig molecule). […] The equilibrium dissociation constant KD (M) of the reaction between antibodies and the target antigen was then calculated from the kinetic rate constants by the following formula: KD=Koff/Kₒₙ. Binding was recorded as a function of time and kinetic rate constants were calculated.

T3 sequence (P15692 other isoform, or with tags, fused parts or gaps): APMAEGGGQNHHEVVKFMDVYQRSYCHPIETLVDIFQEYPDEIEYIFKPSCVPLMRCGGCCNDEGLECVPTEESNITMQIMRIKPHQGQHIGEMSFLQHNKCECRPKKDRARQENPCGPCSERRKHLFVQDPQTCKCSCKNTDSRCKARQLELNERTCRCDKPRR

Row | Binder | Kd [pM] | kon [M⁻¹ s⁻¹]
20 | B9 | 11 | 1.1e+07
21 | B10 | 590 | 1e+07
22 | B11 | 23 | 3.5e+07
23 | B12 | 16 | 6.2e+06
24 | B13 | 11 | 7.2e+06
25 | B14 | 9.4 | 5.5e+06
26 | B15 | 13 | 2.8e+07
27 | B16 | 12 | 6.8e+06

biological target: T1, Human PDGF-BB; assay: competition ELISA: antibody pre-incubated with hPDGF-BB-biotin, binding to coated hPDGF-Rβ-Fc
Method: Plates were then washed four times with wash buffer (TBS, 0.05% Tween-20) and blocked with Superblock blocking buffer (Thermo Scientific, cat#37535). During the blocking step, supernatants, antibodies, benchmark compounds or DVD-Ig were diluted in assay diluent (10% Superblock containing 0.05% surfactamps) and an eight point titration of each sample molecule was performed. […] Following incubation, plates were washed four times with wash buffer. Detection reagent Streptavidin-polyHRP-40 (Fitzgerald, cat#65r-s104phrp) was diluted in assay diluent and added to plates (50 μL) for 45 minutes at 25° C. with shaking. Plates were washed four times with wash buffer and developed with the addition of Enhanced K-blue TMB substrate (Neogen, cat#308177). The reaction was stopped with 2N sulfuric acid (VWR, cat# BDH3500-1) and the absorbance was read at 450 nm-570 nm. […] Data was analyzed using Softmax Pro 4.8 software and IC₅₀ values calculated using a sigmoidal dose response (variable slope) fit in GraphPad Prism 5.
Potency was evaluated in both cell-based and ELISA formats.

Row | Binder | IC50 [pM]
28 | B1 | 49
29 | B2 | < 100
30 | B3 | 1270
31 | B4 | 54
32 | B5 | 92
33 | B6 | 409
34 | B7 | 72
35 | B8 | 114
